Reference: patent US8592178B2, “Process for the preparation of testosterone” (F.I.S. Fabbrica Italiana Sintetici S.p.A., priority 2009, dated 2013)
Converted amounts (≈) assume the structure as drawn. “And” between values parts separate entries of the source, which are not always exact repeats. Identical values can stand only once.

B1: 09/10/09: Preparation of the purified recombinant enzyme dated 09/10/09; induction 26 °C, 19 h (protein, UniProt P70694 1-323, looked up)
Estradiol 17 …: MDSKQQTVRLSDGHFIPILGFGTYAPQEVPKSKATEATKIAIDAGFRHIDSASMYQNEKEVGLAIRSKIADGTVKREDIFYTSKVWCTFHRPELVRVCLEQSLKQLQLDYVDLYLIHFPMAMKPGENYLPKDENGKLIYDAVDICDTWEAMEKCKDAGLAKSIGVSNFNRRQLEKILKKPGLKYKPVCNQVECHPYLNQGKLLDFCRSKDIVLVAYSALGSHREKQWVDQSSPVLLDNPVLGSMAKKYNRTPALIALRYQLQRGVVVLAKSFSEKRIKENMQVFEFQLTSEDMKVLDDLNKNIRYISGSSFKDHPDFPFWDEY
modifications: N-terminal His-tag
notes: Preparation of the purified recombinant enzyme dated 09/10/09; induction 26 °C, 19 h
B2: 22/04/09: Preparation of the purified recombinant enzyme dated 22/04/09; induction 37 °C, 21 h (protein, UniProt P70694 1-323, looked up)
Estradiol 17 …: B1 Estradiol 17 …
modifications: N-terminal His-tag
notes: Preparation of the purified recombinant enzyme dated 22/04/09; induction 37 °C, 21 h
B3: 02/07/09: Preparation of the purified recombinant enzyme dated 02/07/09; induction 28 °C, 24 h (protein, UniProt P70694 1-323, looked up)
Estradiol 17 …: B1 Estradiol 17 …
modifications: N-terminal His-tag
notes: Preparation of the purified recombinant enzyme dated 02/07/09; induction 28 °C, 24 h
B4: 25/03/09: Preparation of the purified recombinant enzyme dated 25/03/09; induction 37 °C, 15 h (protein, UniProt P70694 1-323, looked up)
Estradiol 17 …: B1 Estradiol 17 …
modifications: N-terminal His-tag
notes: Preparation of the purified recombinant enzyme dated 25/03/09; induction 37 °C, 15 h
B5: 26/09/08: Preparation of the purified recombinant enzyme dated 26/09/08; induction 37 °C, 18 h (protein, UniProt P70694 1-323, looked up)
Estradiol 17 …: B1 Estradiol 17 …
modifications: N-terminal His-tag
notes: Preparation of the purified recombinant enzyme dated 26/09/08; induction 37 °C, 18 h
B6: 13/06/09: Preparation of the purified recombinant enzyme dated 13/06/09; induction 39 °C, 20 h (protein, UniProt P70694 1-323, looked up)
Estradiol 17 …: B1 Estradiol 17 …
modifications: N-terminal His-tag
notes: Preparation of the purified recombinant enzyme dated 13/06/09; induction 39 °C, 20 h
B7: recombinant murine type V 17β-hydroxysteroid dehydrogenase enzyme: Purified recombinant murine type V 17β-hydroxysteroid dehydrogenase with N-terminal His-tag tail, SEQ ID n. 2, expressed in E. coli (protein)
chain: MGSSHHHHHHSSGLVPRGSHMDSKQQTVRLSDGHFIPILGFGTYAPQEVPKSKATEATKIAIDAGFRHIDSASMYQNEKEVGLAIRSKIADGTVKREDIFYTSKVWCTFHRPELVRVCLEQSLKQLQLDYVDLYLIHFPMAMKPGENYLPKDENGKLIYDAVDICDTWEAMEKCKDAGLAKSIGVSNFNRRQLEKILKKPGLKYKPVCNQVECHPYLNQGKLLDFCRSKDIVLVAYSALGSHREKQWVDQSSPVLLDNPVLGSMAKKYNRTPALIALRYQLQRGVVVLAKSFSEKRIKENMQVFEFQLTSEDMKVLDDLNKNIRYISGSSFKDHPDFPFWDEY
modifications: N-terminal His-tag; modified 17-beta-deidrogenase
notes: 2, expressed in E. coli

Key:
[1] = Solubility of 4-androstene-3,17-dione (saturated solution); type: physicochemical
Method: • 5 mg of 4-androstene-3,17-dione in • 5 mL of buffer solution (phosphate buffer 50 mM; pH 6.5). This was stirred at 40° C. for 15 minutes and the suspended matter was filtered thereby obtaining a saturated solution of 4-androstene-3,17-dione (conc. 50 μg/mL). Solution I (NAD Solution) • 10 mg of NAD in • 1 mL of buffer solution. A clear solution was obtained. Solution L ([…]) • 13 mg of GDH-103 (glucose dehydrogenase) in • 1 mL of buffer solution. A clear solution was obtained.
Advantageously, the enzyme of the present invention is capable of carrying out the catalysis also in water-organic solvent mixtures, such as methanol, ethanol, isopropanol in percentages as high as 50%. This mixtures allow increasing the substrate solubility, which is as low as about 50 μg/mL in water.

[2] = Activity test of the recombinant murine type V 17β-hydroxysteroid dehydrogenase enzyme (NADPH consumption at 340 nm); type: biochemical; settings: for U/mg: each enzyme preparation; for U/mg / U/ml: preparation parameters (induction temp., time) differ per date of preparation; for U/ml: eluate of each enzyme preparation
Method: To estimate the specific enzymatic activity of the purified protein, a kinetic study was carried out by means of a spectrophotometer. The conversion of 4-androstene-3,17-dione into testosterone by means of the recombinant murine type V 17β-hydroxysteroid dehydrogenase enzyme involved the equimolar consumption of the NADPH cofactor, which acted as the reducing agent.
As the transformation of the 4-androstene-3,17-dione into testosterone is equimolar to the oxidation of NADPH, by quantifying the consumption of the latter over time as a function of the enzyme milligrams used, the activity units can be estimated, which are intended as substrate micromoles converted per minute per protein milligram (U/mg).
A fresh saturated NADPH solution in phosphate buffer 100 mM at about pH 7 (SOLUTION Q) and a fresh saturated solution of 4-androstene-3,17-dione in phosphate buffer 100 mM at pH 7 (SOLUTION P) were prepared. In a quartz 100 μl cuvette, 1 cm optical path, 96 μl SOLUTION P, 4 μl phosphate buffer 100 mM at pH 7 were added. The blank was measured at 340 nm. The absorbance values at 340 nm were detected every second. In a quartz 100 μl cuvette 96 μl SOLUTION P, 2 μl SOLUTION Q and finally, 2 μl protein elution quantified by Bradford assay were inserted. The solution was blended thoroughly, then the wavelength reading was started at 340 nm and the values thereof were recorded. In a plot, the absorbance values were inserted, which were obtained as a function of time and the curve was interpolated. The highest derivate value within the early seconds of measurement was thus defined.
With the values obtained, the plot illustrated in FIG. 5 was drawn, which allows to quantify the NADPH consumption rate at time zero (except the self-oxidation given by the control, consisting of the mixture without enzyme, which must be subtracted) and from the latter the enzyme activity units per protein milligram (U/mg). To calculate the units, the following Formula was used: Unit/mg=|derivate (s^−1)|*60 (sec/min)*1 (cm)/6220 (M^−1Cm^−1)*1000000 (M/M)*[…]/[(mg/mL sol enzyme*0.002 (mL))]=(μmol/min)/mg
A study to optimize the process for the preparation of the purified recombinant murine enzyme Type V 17β-hydroxysteroid dehydrogenase was carried out. […] It can be seen that the highest activity of the enzyme is reached performing the incubation (protein expression) at a temperature lower than 30° C., particularly preferred is the range between 20° C. and 30° C. The incubation temperature is a key parameter for the preparation of the enzyme.

[3] = Stability study of the enzyme (activity as a function of time at room temperature); type: physicochemical; settings: in the elution solution (SOLUTION G) at room temperature
Method: A study to verify the stability in water of the purified recombinant murine enzyme Type V 17β-hydroxysteroid dehydrogenase of the invention was carried out. […] It can be seen that the enzyme is sufficiently stable to allow industrial biocatalysis as it is still active even after 15 days (Half-life).

Molecule	U/mg [2] [U/mg]	U/ml [2] [U/ml]	other results
C[C@]12CCC(=O)C=C1CC[C@@H]1[C@@H]2CC[C@]2(C)C(=O)CC[C@@H]12 [4-androstene-3,17-dione]			solubility ([1]; in water): ~50 µg/mL (≈ 175 µM); concentration of saturated solution ([1]; phosphate buffer 50 mM pH 6.5, stirred at 40° C. for 15 minutes, filtered): 50 µg/mL
B1	0.0133	0.65	
B2	0.0057	0.1470	
B3	0.027	0.29	
B4	0.0149	0.4955	
B5	0.00725	0.2247	
B6	0.00393	0.0566	
B7			half-life [3]: more than 15 days; specific enzymatic activity (substrate micromoles converted per minute per protein milligram) ([2]; two different preparations, NADPH cofactor, phosphate buffer 100 mM pH 7): 0.006 U/mg and 0.007 U/mg
